Measured values taken from patent US20200199204A1 (UNITED STATES OF AMERICA AS REPRESENTED BY THE SECRETARY …, published 2020).
Residue numbers refer to the chain shown, from its start.

Experiments:
Experiment in all cases: cell-based or functional assay
[1] = molecular target: HIV-1 Env of ZM53.12 (HIV-1)
[2] = molecular target: HIV-1 Env of Q842.d12 (HIV-1)
[3] = molecular target: HIV-1 Env of CAP256.PI (HIV-1)
[4] = molecular target: HIV-1 Env of CNE3 (HIV-1)
[5] = molecular target: HIV-1 Env of MB539.2B7 (HIV-1)
[6] = molecular target: HIV-1 Env of DU156.12 (HIV-1)
[7] = molecular target: HIV-1 Env of MB201 (HIV-1)
[8] = molecular target: HIV-1 Env of RW020.2 (HIV-1)
[9] = molecular target: HIV-1 Env of ZM233.6 (HIV-1)
[10] = molecular target: HIV-1 Env of TH976.17 (HIV-1)
[11] = molecular target: HIV-1 Env of THRO.18 (HIV-1)
[12] = molecular target: HIV-1 Env of WITO.33 (HIV-1)
[13] = molecular target: HIV-1 Env of ZM197.7 (HIV-1)
[14] = molecular target: HIV-1 Env of UG037.8 (HIV-1)
[15] = molecular target: HIV-1 Env of 6535.3 (HIV-1)
[16] = molecular target: HIV-1 Env of RHPA.7 (HIV-1)
[17] = molecular target: HIV-1 Env of 96ZM651.02 (HIV-1)
[18] = molecular target: HIV-1 Env of ZM135.10a (HIV-1)
[19] = molecular target: HIV-1 Env of QH0692.42 (HIV-1)
[20] = molecular target: HIV-1 Env of KER2018.11 (HIV-1)
[21] = molecular target: HIV-1 Env of TRJO.58 (HIV-1)
[22] = molecular target: HIV-1 Env of ZM249.1 (HIV-1)
[23] = molecular target: HIV-1 Env of CM244.ec1 (HIV-1)
[24] = molecular target: HIV-1 Env of PVO.04 (HIV-1)
[25] = molecular target: HIV-1 Env of KER2008.12 (HIV-1)
[26] = molecular target: HIV-1 Env of 0260.v5.c36 (HIV-1)
[27] = molecular target: HIV-1 Env of ZM109.4 (HIV-1)
[28] = molecular target: HIV-1 Env of Q769.d22 (HIV-1)
[29] = molecular target: HIV-1 Env of Q23.17 (HIV-1)
[30] = molecular target: HIV-1 Env of ZM214.15 (HIV-1)
[31] = molecular target: HIV-1 Env of REJO.67 (HIV-1)
[32] = molecular target: HIV-1 Env of AC10.29 (HIV-1)
[33] = molecular target: HIV-1 Env of SC422.8 (HIV-1)
[34] = molecular target: HIV-1 Env of 6405.v4.c34 (HIV-1)
[35] = molecular target: HIV-1 Env of CAP256.SU (HIV-1)
[36] = molecular target: HIV-1 Env of Q461.e2 (HIV-1)
[37] = molecular target: HIV-1 Env of Q168.a2 (HIV-1)
[38] = molecular target: HIV-1 Env of C1080.c3 (HIV-1)
[39] = molecular target: HIV-1 Env of CAP210.E8 (HIV-1)
[40] = molecular target: HIV-1 Env of Q259.d2.17 (HIV-1)
[41] = molecular target: HIV-1 Env of TRO.11 (HIV-1)
[42] = molecular target: HIV-1 Env of DU172.17 (HIV-1)
[43] = molecular target: HIV-1 Env of CAP45.G3 (HIV-1)
[44] = molecular target: HIV-1 Env of 3016.V5.c36 (HIV-1)
[45] = molecular target: HIV-1 Env of CAAN.A2 (HIV-1)
[46] = molecular target: HIV-1 Env of CAP244.D3 (HIV-1)
[47] = molecular target: HIV-1 Env of DU422.01 (HIV-1)
[48] = molecular target: HIV-1 Env of BG505.w6m (HIV-1)

B1: CAP256-VRC26.26 (antibody, V domains shown)
VH: EVQLVESGGGIVQPGRSLTLSCVASQFAFSHYGMHWVRQAPGKGLEWVASISRDETKKYHGDSVWDRFSISRDNSKNTLFLQMNSLRAEDTALYFCVRDQREDECEEWWSDYYDFGKELPCRKFRGLGLAGIFDVWGHGTMVIVSS
VL: QSALTQPPSVSAAPGQKVSISCSGNNSNIGNNFISWFQQFPGTAPKPLIYETYKRHSGIPDRFSGSKSGTSATLAITGLQTGDEADYYCATWGVRQGVGALFGTGTKVTVLG
IC50 (neutralization, TZM-bl) [1]: 0.001 µg/mL | IC50 (neutralization, TZM-bl) [2]: 17.1 µg/mL | IC50 (neutralization, TZM-bl) [3]: > 50 µg/mL | IC50 (neutralization, TZM-bl) [4]: > 50 µg/mL | IC50 (neutralization, TZM-bl) [5]: 0.634 µg/mL | IC50 (neutralization, TZM-bl) [6]: 0.013 µg/mL | IC50 (neutralization, TZM-bl) [7]: > 50 µg/mL | IC50 (neutralization, TZM-bl) [8]: > 50 µg/mL | IC50 (neutralization, TZM-bl) [9]: 0.001 µg/mL | IC50 (neutralization, TZM-bl) [10]: > 50 µg/mL | IC50 (neutralization, TZM-bl) [11]: 0.667 µg/mL | IC50 (neutralization, TZM-bl) [12]: > 50 µg/mL | IC50 (neutralization, TZM-bl) [13]: 0.011 µg/mL | IC50 (neutralization, TZM-bl) [14]: > 50 µg/mL | IC50 (neutralization, TZM-bl) [15]: > 50 µg/mL | IC50 (neutralization, TZM-bl) [16]: > 50 µg/mL | IC50 (neutralization, TZM-bl) [17]: 0.111 µg/mL | IC50 (neutralization, TZM-bl) [18]: > 50 µg/mL | IC50 (neutralization, TZM-bl) [19]: > 50 µg/mL | IC50 (neutralization, TZM-bl) [20]: 0.001 µg/mL | IC50 (neutralization, TZM-bl) [21]: > 50 µg/mL | IC50 (neutralization, TZM-bl) [22]: 0.023 µg/mL | IC50 (neutralization, TZM-bl) [23]: 0.047 µg/mL | IC50 (neutralization, TZM-bl) [24]: 0.562 µg/mL | IC50 (neutralization, TZM-bl) [25]: > 50 µg/mL | IC50 (neutralization, TZM-bl) [26]: 0.78 µg/mL | IC50 (neutralization, TZM-bl) [27]: 0.025 µg/mL | IC50 (neutralization, TZM-bl) [28]: > 50 µg/mL | IC50 (neutralization, TZM-bl) [29]: > 50 µg/mL | IC50 (neutralization, TZM-bl) [30]: 14.1 µg/mL | IC50 (neutralization, TZM-bl) [31]: > 50 µg/mL | IC50 (neutralization, TZM-bl) [32]: > 50 µg/mL | IC50 (neutralization, TZM-bl) [33]: 1.74 µg/mL | IC50 (neutralization, TZM-bl) [34]: > 50 µg/mL | IC50 (neutralization, TZM-bl) [35]: 0.003 µg/mL | IC50 (neutralization, TZM-bl) [36]: 0.024 µg/mL | IC50 (neutralization, TZM-bl) [37]: 0.005 µg/mL | IC50 (neutralization, TZM-bl) [38]: 0.016 µg/mL | IC50 (neutralization, TZM-bl) [39]: 0.007 µg/mL | IC50 (neutralization, TZM-bl) [40]: 0.011 µg/mL | IC50 (neutralization, TZM-bl) [41]: > 50 µg/mL | IC50 (neutralization, TZM-bl) [42]: 0.5 µg/mL | IC50 (neutralization, TZM-bl) [43]: 0.08 µg/mL | IC50 (neutralization, TZM-bl) [44]: 0.022 µg/mL | IC50 (neutralization, TZM-bl) [45]: > 50 µg/mL | IC50 (neutralization, TZM-bl) [46]: 36.6 µg/mL | IC50 (neutralization, TZM-bl) [47]: 0.08 µg/mL | IC50 (neutralization, TZM-bl) [48]: 0.066 µg/mL

B2: CAP256-VRC26.27 (antibody, V domains shown)
VH: QKQLVESGGGVVQPGRSLTLSCAASQFPFSHYGMHWVRQAPGKGLEWVASITNDGTKKYHGESVWDRFRISRDNSKNTLFLQMNSLRAEDTALYFCVRDQREDECEEWWSDYYDFGKELPCRKFRGLGLAGIFDIWGHGTMVIVSS
VL: B1 VL with A3V, K54R
IC50 (neutralization, TZM-bl) [1]: < 0.0006 µg/mL | IC50 (neutralization, TZM-bl) [2]: 10.6 µg/mL | IC50 (neutralization, TZM-bl) [3]: > 50 µg/mL | IC50 (neutralization, TZM-bl) [4]: > 50 µg/mL | IC50 (neutralization, TZM-bl) [5]: 1.15 µg/mL | IC50 (neutralization, TZM-bl) [6]: 0.006 µg/mL | IC50 (neutralization, TZM-bl) [7]: > 50 µg/mL | IC50 (neutralization, TZM-bl) [8]: > 50 µg/mL | IC50 (neutralization, TZM-bl) [9]: < 0.0006 µg/mL | IC50 (neutralization, TZM-bl) [10]: > 50 µg/mL | IC50 (neutralization, TZM-bl) [11]: 1.23 µg/mL | IC50 (neutralization, TZM-bl) [12]: > 50 µg/mL | IC50 (neutralization, TZM-bl) [13]: 0.004 µg/mL | IC50 (neutralization, TZM-bl) [14]: > 50 µg/mL | IC50 (neutralization, TZM-bl) [15]: > 50 µg/mL | IC50 (neutralization, TZM-bl) [16]: > 50 µg/mL | IC50 (neutralization, TZM-bl) [17]: 0.047 µg/mL | IC50 (neutralization, TZM-bl) [18]: > 50 µg/mL | IC50 (neutralization, TZM-bl) [19]: > 50 µg/mL | IC50 (neutralization, TZM-bl) [20]: 0.001 µg/mL | IC50 (neutralization, TZM-bl) [21]: > 50 µg/mL | IC50 (neutralization, TZM-bl) [22]: 0.004 µg/mL | IC50 (neutralization, TZM-bl) [23]: 0.056 µg/mL | IC50 (neutralization, TZM-bl) [24]: 0.371 µg/mL | IC50 (neutralization, TZM-bl) [25]: 11.3 µg/mL | IC50 (neutralization, TZM-bl) [26]: 2.1 µg/mL | IC50 (neutralization, TZM-bl) [27]: 0.027 µg/mL | IC50 (neutralization, TZM-bl) [28]: > 50 µg/mL | IC50 (neutralization, TZM-bl) [29]: > 50 µg/mL | IC50 (neutralization, TZM-bl) [30]: 3.86 µg/mL | IC50 (neutralization, TZM-bl) [31]: > 50 µg/mL | IC50 (neutralization, TZM-bl) [32]: > 50 µg/mL | IC50 (neutralization, TZM-bl) [33]: 4.86 µg/mL | IC50 (neutralization, TZM-bl) [34]: > 50 µg/mL | IC50 (neutralization, TZM-bl) [35]: < 0.0006 µg/mL | IC50 (neutralization, TZM-bl) [36]: 0.014 µg/mL | IC50 (neutralization, TZM-bl) [37]: 0.003 µg/mL | IC50 (neutralization, TZM-bl) [38]: 0.149 µg/mL | IC50 (neutralization, TZM-bl) [39]: 0.002 µg/mL | IC50 (neutralization, TZM-bl) [40]: 0.005 µg/mL | IC50 (neutralization, TZM-bl) [41]: > 50 µg/mL | IC50 (neutralization, TZM-bl) [42]: 4.36 µg/mL | IC50 (neutralization, TZM-bl) [43]: 0.025 µg/mL | IC50 (neutralization, TZM-bl) [44]: 0.006 µg/mL | IC50 (neutralization, TZM-bl) [45]: > 50 µg/mL | IC50 (neutralization, TZM-bl) [46]: > 50 µg/mL | IC50 (neutralization, TZM-bl) [47]: 0.015 µg/mL | IC50 (neutralization, TZM-bl) [48]: 0.102 µg/mL
